Results: paper PMC7165476 (Proceedings of the National Academy of Sciences of the …, 2020)
Read-outs that look alike come from different tables or passages of the source.

T1: CIRBP RGG (CIRBPRGG) (Homo sapiens, UniProt Q14011 68-137)
T1 sequence: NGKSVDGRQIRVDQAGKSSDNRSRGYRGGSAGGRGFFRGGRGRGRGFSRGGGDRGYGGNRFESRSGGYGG

T2: Transportin-3 (TNPO3), recombinant full length (human, UniProt Q9Y5L0 1-923)
T2 sequence (looked up): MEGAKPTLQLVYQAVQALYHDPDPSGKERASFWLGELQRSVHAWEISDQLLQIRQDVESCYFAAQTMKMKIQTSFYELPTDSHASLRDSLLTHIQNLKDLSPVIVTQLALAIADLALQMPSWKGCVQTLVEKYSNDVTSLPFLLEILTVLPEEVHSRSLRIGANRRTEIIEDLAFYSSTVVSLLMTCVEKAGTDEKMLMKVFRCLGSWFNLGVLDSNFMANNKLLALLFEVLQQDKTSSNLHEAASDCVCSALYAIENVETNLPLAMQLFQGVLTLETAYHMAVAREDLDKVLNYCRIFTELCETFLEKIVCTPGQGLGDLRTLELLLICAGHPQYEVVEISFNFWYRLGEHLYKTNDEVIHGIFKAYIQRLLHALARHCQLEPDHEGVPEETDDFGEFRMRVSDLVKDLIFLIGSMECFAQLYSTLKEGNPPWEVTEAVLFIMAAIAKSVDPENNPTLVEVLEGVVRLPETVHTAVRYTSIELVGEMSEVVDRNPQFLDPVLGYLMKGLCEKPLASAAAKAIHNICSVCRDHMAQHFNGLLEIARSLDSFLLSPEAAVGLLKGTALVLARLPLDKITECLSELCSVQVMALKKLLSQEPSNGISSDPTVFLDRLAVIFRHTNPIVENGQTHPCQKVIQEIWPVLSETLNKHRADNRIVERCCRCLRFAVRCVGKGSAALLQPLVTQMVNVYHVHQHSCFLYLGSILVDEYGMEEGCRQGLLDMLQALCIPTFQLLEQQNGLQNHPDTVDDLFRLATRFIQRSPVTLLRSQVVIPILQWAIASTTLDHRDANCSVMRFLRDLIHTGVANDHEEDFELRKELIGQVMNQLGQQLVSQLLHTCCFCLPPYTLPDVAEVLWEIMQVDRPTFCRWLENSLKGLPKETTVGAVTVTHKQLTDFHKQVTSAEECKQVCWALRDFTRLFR


Columns and labels:
[1] = molecular target: Transportin-1 (TNPO1), recombinant full length (human) (UniProt Q92973); test: ITC
[2] = molecular target: Transportin-3 (TNPO3), recombinant full length (human) (UniProt Q9Y5L0); test: ITC
[3] = molecular target: TNPO1 lacking the disordered acidic loop (TNPO1^Δloop) (human) (UniProt Q92973); test: ITC
[4] = molecular target: Transportin-3 (TNPO3), recombinant full length (human) (UniProt Q9Y5L0); test: ITC; remark: listed apart in the source
[5] = molecular target: TNPO1 acidic loop (TNPO1^loop) (human); test: NMR titration
[6] = molecular target: T1, CIRBP RGG (CIRBPRGG); test: NMR
[7] = molecular target: T2, Transportin-3 (TNPO3), recombinant full …; test: ITC

Chain of Transportin-1 (TNPO1), recombinant full length (human) (Q92973 whole entry): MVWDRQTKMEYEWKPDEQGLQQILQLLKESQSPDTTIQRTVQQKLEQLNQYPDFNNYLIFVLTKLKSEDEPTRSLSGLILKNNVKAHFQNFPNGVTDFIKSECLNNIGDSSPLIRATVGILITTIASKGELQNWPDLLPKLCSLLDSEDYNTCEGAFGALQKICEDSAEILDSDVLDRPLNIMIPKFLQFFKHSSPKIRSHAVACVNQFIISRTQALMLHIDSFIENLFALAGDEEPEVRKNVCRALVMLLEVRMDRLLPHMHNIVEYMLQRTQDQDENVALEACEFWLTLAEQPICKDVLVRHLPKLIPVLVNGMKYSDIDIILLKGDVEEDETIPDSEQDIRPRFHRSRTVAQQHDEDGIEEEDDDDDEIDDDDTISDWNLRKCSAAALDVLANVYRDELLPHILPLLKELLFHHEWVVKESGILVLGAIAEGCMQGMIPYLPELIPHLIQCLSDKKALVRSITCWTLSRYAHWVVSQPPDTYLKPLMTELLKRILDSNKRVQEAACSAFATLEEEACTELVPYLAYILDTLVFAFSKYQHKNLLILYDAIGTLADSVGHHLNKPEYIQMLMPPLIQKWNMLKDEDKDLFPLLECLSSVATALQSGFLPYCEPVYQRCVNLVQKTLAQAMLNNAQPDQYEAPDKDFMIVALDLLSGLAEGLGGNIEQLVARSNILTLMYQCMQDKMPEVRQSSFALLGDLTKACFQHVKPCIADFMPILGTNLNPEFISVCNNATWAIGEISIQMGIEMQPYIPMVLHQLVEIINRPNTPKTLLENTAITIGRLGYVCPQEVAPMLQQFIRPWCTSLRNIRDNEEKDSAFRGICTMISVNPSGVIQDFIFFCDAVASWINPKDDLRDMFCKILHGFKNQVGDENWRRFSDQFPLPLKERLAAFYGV
Chain of TNPO1 lacking the disordered acidic loop (TNPO1^Δloop) (human) (Q92973 whole entry, stated change not applied): as the sequence (Q92973 whole entry) above
Chain of PY-NLS of FUS (FUS^PY-NLS) (domain or fragment) (P35637 whole entry, the tested form may be a part): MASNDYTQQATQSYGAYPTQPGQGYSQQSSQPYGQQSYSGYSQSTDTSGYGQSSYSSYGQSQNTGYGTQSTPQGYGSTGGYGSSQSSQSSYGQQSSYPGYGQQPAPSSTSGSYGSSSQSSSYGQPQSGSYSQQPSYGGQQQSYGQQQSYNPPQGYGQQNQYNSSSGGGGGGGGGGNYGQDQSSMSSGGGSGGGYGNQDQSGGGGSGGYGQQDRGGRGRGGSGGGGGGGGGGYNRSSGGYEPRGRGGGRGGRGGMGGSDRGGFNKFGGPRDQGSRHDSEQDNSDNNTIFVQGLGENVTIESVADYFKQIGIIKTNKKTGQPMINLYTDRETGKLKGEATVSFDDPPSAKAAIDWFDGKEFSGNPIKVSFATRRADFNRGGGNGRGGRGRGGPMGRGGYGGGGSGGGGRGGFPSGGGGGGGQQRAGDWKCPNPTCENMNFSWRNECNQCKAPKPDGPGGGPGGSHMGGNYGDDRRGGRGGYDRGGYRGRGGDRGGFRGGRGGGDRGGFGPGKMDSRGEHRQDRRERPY
Chain of TNPO1 acidic loop (TNPO1^loop) (human) (Q92973 whole entry): as the sequence (Q92973 whole entry) above

Molecule	Kd [1] [nM]	dH [1] [kcal⋅mol^−1]	Kd [2] [nM]	dH [2] [kcal⋅mol^−1]	Kd [3] [nM]	dH [3] [kcal⋅mol^−1]	other results
CIRBP RG/RGG-rich region (CIRBP^RGG) (domain or fragment)	75	-11.3	584	-27	364	-22.3	Kd [4]: 589 nM; Kd [5]: 57 µM
Cold-inducible RNA-binding protein (CIRBP), full length, untagged (from UniProt Q14011 1-172) (natural protein)	741	-21					
UGUGUGUGUGUGUGUGUGUGUGUG (ssRNA) [(UG)12 RNA]							binding result [6]: binds
Cold-inducible RNA-binding protein (CIRBP), full length, untagged (natural protein, human, UniProt Q14011 1-172, looked up) MASDEGKLFVGGLSFDTNEQSLEQVFSKYGQISEVVVVKDRETQRSRGFGFVTFENIDDAKDAMMAMNGKSVDGRQIRVDQAGKSSDNRSRGYRGGSAGGRGFFRGGRGRGRGFSRGGGDRGYGGNRFESRSGGYGGSRDYYSSRSQSGGYSDRSSGGSYRDSYDSYATHNE							Kd [7]: 289 nM; dH [7]: -58.6 kcal⋅mol^−1

Continued, in another order:

Kd [1] [nM]	dH [1] [kcal⋅mol^−1]	Kd [2] [nM]	dH [2] [kcal⋅mol^−1]	Kd [3] [nM]	dH [3] [kcal⋅mol^−1]	Molecule	other results
7800	-10	114	-34.9	8080	-19	CIRBP C-terminal RSY-rich region (CIRBP^RSY) (domain or fragment)	
		3300	-23			PRMT1-methylated CIRBP RG/RGG region (meCIRBP^RGG) (domain or fragment)	
48	-21.9			62	-20.6	PY-NLS of FUS (FUS^PY-NLS) (domain or fragment)	
